Biological target: T1, trans-2-butenoyl-ACP (acyl carrier protein carrying the trans-2-butenoyl group), P0A6A8
T1 chain: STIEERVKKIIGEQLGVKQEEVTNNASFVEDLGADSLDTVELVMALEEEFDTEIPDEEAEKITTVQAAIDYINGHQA

B1: His-tagged FabK (enoyl-ACP reductase II) of Streptococcus pneumoniae (protein)
chain: MKTRITELLKIDYPIFQGGMAWVADGDLAGAVSKAGGLGIIGGGNAPKEVVKANIDKIKSLTDKPFGVNIMLLSPFVEDIVDLVIEEGVKVVTTGAGNPSKYMERFHEAGIIVIPVVPSVALAKRMEKIGADAVIAEGMEAGGHIGKLTTMTLVRQVATAISIPVIAAGGIADGEGAAAGFMLGAEAVQVGTRFVVAKESNAHPNYKEKILKARDIDTTISAQHFGHAVRAIKNQLTRDFELAEKDAFKQEDPDLEIFEQMGAGALAKAVVHGDVDGGSVMAGQIAGLVSKEETAEEILKDLYYGAAKKIQEEASRWTGVVRND
  specific activity (enoyl-ACP reductase activity, coupled in vitro assay, butyryl-ACP formation by gel electrophoresis): 66±4 nmole product formed/min/mg FabK
